Reference: US20240301052A1 (LANOVA MEDICINES DEVELOPMENT, published 2024)

T1: Rhesus SLC34A2 (Rhesus, UniProt F7HDA3 1-690)
T1 construct: whole, on cells
T1 sequence: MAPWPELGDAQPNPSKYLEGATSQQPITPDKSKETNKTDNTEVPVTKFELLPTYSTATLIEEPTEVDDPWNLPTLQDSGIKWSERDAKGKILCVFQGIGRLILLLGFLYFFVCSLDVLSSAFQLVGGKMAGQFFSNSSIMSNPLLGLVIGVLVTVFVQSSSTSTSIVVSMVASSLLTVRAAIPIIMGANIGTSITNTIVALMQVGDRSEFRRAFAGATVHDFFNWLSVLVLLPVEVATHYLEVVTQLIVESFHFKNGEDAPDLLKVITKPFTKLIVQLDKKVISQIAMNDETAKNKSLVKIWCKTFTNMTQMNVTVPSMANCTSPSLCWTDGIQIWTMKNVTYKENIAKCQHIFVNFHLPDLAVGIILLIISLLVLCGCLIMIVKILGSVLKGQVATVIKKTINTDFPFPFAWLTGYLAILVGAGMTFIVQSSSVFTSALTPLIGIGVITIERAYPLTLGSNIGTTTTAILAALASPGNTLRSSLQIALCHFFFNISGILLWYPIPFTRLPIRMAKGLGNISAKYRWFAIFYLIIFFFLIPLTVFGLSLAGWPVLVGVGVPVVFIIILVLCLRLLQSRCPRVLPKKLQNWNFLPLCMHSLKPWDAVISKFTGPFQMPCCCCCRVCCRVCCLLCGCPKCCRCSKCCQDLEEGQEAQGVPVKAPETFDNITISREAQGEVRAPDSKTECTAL

T2: human SLC34A2 (human, UniProt O95436 1-690)
T2 sequence (looked up): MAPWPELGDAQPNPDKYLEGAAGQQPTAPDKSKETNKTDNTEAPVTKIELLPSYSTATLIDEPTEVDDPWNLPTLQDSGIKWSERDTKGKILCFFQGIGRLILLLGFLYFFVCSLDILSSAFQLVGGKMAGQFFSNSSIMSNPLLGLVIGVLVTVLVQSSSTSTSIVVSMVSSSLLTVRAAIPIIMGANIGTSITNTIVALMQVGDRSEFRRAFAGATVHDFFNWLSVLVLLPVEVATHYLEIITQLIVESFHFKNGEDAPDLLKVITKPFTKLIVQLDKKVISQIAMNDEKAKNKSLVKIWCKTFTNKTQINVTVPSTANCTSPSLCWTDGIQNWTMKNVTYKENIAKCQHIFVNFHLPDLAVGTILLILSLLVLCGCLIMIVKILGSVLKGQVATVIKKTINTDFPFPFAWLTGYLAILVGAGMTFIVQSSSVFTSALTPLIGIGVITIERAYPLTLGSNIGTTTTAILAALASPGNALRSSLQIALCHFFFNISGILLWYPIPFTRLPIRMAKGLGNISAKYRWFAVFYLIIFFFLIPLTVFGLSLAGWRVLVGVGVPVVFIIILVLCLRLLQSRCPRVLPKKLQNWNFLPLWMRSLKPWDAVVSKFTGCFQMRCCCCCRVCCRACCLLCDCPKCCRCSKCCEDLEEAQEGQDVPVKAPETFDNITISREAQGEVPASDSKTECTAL

T3: Cynomolgus SLC34A2 (Cynomolgus, UniProt A0A2K5UHY1 1-690)
T3 construct: whole, on cells; also called Cyno SLC34A2
T3 sequence: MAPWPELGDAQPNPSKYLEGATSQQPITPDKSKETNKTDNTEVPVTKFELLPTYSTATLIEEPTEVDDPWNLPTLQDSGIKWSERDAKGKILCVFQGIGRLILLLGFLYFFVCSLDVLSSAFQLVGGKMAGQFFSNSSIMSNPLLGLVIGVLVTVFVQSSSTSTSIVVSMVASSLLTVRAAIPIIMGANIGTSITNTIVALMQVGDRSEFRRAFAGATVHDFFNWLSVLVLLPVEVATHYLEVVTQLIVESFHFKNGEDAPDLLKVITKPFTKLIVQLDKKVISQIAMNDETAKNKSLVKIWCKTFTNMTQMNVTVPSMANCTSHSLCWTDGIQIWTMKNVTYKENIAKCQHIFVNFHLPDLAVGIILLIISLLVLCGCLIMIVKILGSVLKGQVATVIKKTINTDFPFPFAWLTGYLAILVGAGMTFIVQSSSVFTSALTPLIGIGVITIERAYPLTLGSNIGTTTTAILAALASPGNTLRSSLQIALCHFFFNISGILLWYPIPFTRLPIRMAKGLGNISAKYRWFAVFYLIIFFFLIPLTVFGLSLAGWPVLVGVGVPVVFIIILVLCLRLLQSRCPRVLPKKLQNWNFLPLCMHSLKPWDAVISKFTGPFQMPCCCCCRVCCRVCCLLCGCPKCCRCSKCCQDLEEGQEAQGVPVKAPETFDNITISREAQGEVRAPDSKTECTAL


Columns and labels:
[1] = target: T1, Rhesus SLC34A2; assay: FACS, HEK293/Rhesus SLC34A2 cells
Method: (§1) Briefly, the Rhesus SLC34A2 expressing HEK293 engineering cells (HEK293/Rhesus_SLC34A2) were incubated with chimeric Abs (from 200 nM, 4 folds dilution, 8 points). After incubation at 4° C. for 60 minutes, the cells were washed with FACS buffer twice, then stained with fluorescent conjugated secondary antibody at 4° C. for 30 minutes. After that the cells were washed twice and analyzed by flow cytometry.

[2] = target: T2, human SLC34A2; assay: cell-based or functional assay
[3] = target: T2, human SLC34A2; assay: cell-based or functional assay; remark: listed apart in the source
[4] = target: T3, Cynomolgus SLC34A2; assay: FACS, cells expressing Cynomolgus SLC34A2
[5] = target: T2, human SLC34A2; assay: FACS, RMG-1 cells
Method: Based on the foregoing cell-based binding results, some of the chimeric antibodies were selected for further cell based binding on human SLC34A2 expressing cells using flow cytometry. RMG-1 cells were incubated with the selected chimeric antibodies (from 200 nM, 4 folds dilution, 8 points). After incubation at 4° C. for 60 minutes, the cells were washed with FACS buffer twice, then stained with fluorescent conjugated secondary antibody at 4° C. for 30 minutes. Afterwards the cells were washed twice and analyzed by flow cytometry.

[6] = target: T2, human SLC34A2; assay: FACS, OVCAR3 cells
Method: In this example, cell based binding of chimeric antibodies (hIgG1) prepared from the murine antibodies on human SLC34A2 expressing cells were assessed using flow cytometry.
as §1, with “OVCAR3 cells or HEK293 cells expressing human” for “the Rhesus”, “SLC34A2” for “SLC34A2 expressing HEK293 engineering cells (HEK293/Rhesus_SLC34A2)”, “antibodies” for “Abs”

[7] = target: T2, human SLC34A2; assay: FACS, HEK293/human SLC34A2 cells
Method: as §1, with “OVCAR3 cells or HEK293 cells expressing human” for “the Rhesus”, “SLC34A2” for “SLC34A2 expressing HEK293 engineering cells (HEK293/Rhesus_SLC34A2)”, “antibodies” for “Abs”

| Binder | EC50 [1] | Top (MFI) [1] | ADCC reporter EC50 [2] | ADCC reporter Top (MFI) [2] | EC50 [4] | Top (MFI) [4] | EC50 [5] | Top (MFI) [5] | EC50 [6] | Top (MFI) [6] | EC50 [7] | Top (MFI) [7] | cytotoxicity EC50 [3] | cytotoxicity Inhibition % [3] |
| --- | --- | --- | --- | --- | --- | --- | --- | --- | --- | --- | --- | --- | --- | --- |
| xi87H12B7 hIgG1 (antibody, V domains shown, chimeric, hIgG1) VH: QVQLQQPGAEVVRPGASVKMSCKASGYTFTSYIVHWVKQPPGQGLEWIGAIYPGNGDTSYIQKFKGRATLTADKSSSTVYMQLSSLTSEDSAVYYCARGHYYGSAAWFGFWGQGTLVTVSA VL: DILLTQSPAILSVSPGERVSFSCRASQNIGTSIHWYQQRTNDSPRLLMRYASESVSGIPSRFSGSGSGTDFTLSINSVESEDIADYYCQQSNTWPLTFGAGTKLELK | 2.85 nM | 18300 MFI | 5.1 nM | 195000 MFI | 7.66 nM | 4710 MFI | 9.11 nM | 9660 MFI | 5.43 nM | 27800 MFI | 1.62 nM | 44900 MFI | 0.35 nM | 82.6% |
| xi94E9B12 hIgG1 (antibody, V domains shown, chimeric, hIgG1) VH: QVQLQQPGAELVKPGASVKMSCKASGYTFTSYNMQWVKQTYGQGLEWIGAISPGSGETSYNQNFKVKATLTADKISSTAYMQLSSLTSEDSAVYYCARAARAEGWFAYWGQGTLVTVSA VL: DIVMTQSHKFMSTSVGDRVSITCKASQDVGHAVVWYQQKPGQFPKLLIYWASTRHAGVPDRFTGSGSGTDFTLTISNVQSEDLADYFCQQFRSIPLTFGSGTKLEIK | 2.38 nM | 18700 MFI | 3.3 nM | 382000 MFI | 2.51 nM | 3580 MFI | 9.05 nM | 10000 MFI | 11 nM | 46200 MFI | 2.48 nM | 106000 MFI | 0.85 nM | 83.6% |
| xi94B10A8 hIgG1 (antibody, V domains shown, chimeric, hIgG1) VH: QVQLQQTGAELVKPGASVKMSCKASGYTFTGYIIHWIKQRPGQGLEWIGAIYPGNGDTSYNQKIKGRATLTADKSSTTAYMQLSSLTSEDSAVYYCARGDYGNPAWFAYWGQGTLVTVSA VL: DVVLTQSPATLSVTPGDRVSLSCRASQSISNYLYWYQQKAHESPRLLIKFASQSISGIPSRFRGSGSGTDFTLSINSVETEDFGMYFCQQSNKWPLTFGAGTKLELK | 2.24 nM | 13700 MFI | 4 nM | 486000 MFI | 5.47 nM | 3150 MFI | 2.58 nM | 9370 MFI | 1.57 nM | 39600 MFI | 1.17 nM | 91300 MFI | 0.7 nM | 97.5% |

Stronger by EC50 [1], values ahead:

| EC50 [1] | Top (MFI) [1] | ADCC reporter EC50 [2] | ADCC reporter Top (MFI) [2] | EC50 [4] | Top (MFI) [4] | EC50 [5] | Top (MFI) [5] | EC50 [6] | Top (MFI) [6] | EC50 [7] | Top (MFI) [7] | Binder | cytotoxicity EC50 [3] | cytotoxicity Inhibition % [3] |
| --- | --- | --- | --- | --- | --- | --- | --- | --- | --- | --- | --- | --- | --- | --- |
| 1.58 nM | 16000 MFI | 2.6 nM | 212000 MFI | 1.5 nM | 4400 MFI | 2.1 nM | 9860 MFI | 2.52 nM | 27500 MFI | 1.26 nM | 47700 MFI | xi78D1B10 hIgG1 (antibody, V domains shown, chimeric, hIgG1) VH: QVQLQQPGADLVKPGASVKLSCKASGFTFTSYIIHWVKQTPGQGLEWIGAIYPGNGDTSYIQKFKGRATLTADKSSTTAYMQLGGLTSEDSAVYYCARGTYGSSAWFVYWGQGTLVTVSA VL: DIVLTQSPATLSVTPGDSVSLSCRASQSISNNLYWYQQKSHESPRLLIKYASQSISGIPSRFRGSGSGTDFTLSINSVETEDFGMYFCQQSNSWPLTFGAGTKLELK | 0.5 nM | 94% |
| 1.68 nM | 11600 MFI | 2.7 nM | 216000 MFI | 88.3 nM | 2570 MFI | 1.7 nM | 9200 MFI | 2.12 nM | 27700 MFI | 1.19 nM | 48000 MFI | xi69B11D8 hIgG1 (antibody, V domains shown, chimeric, hIgG1) VH: EVQLQQSGPELVKPGAAVKISCKTSGYTFTDYTMHWVRQSHGKSLEWIGGIHPNNGGTGYNQKLRGKATLTVDKSSSTAYMELRSLTSDDSAVYYCARGRESDGWFTYWGQGTLVTFSA VL: DVHMTQTTSSLSASLGDRVTITCSASQGIGNSLNWYQQQPDGTVKLLIYYTSRLHSGVPSRFSGSGSGTDYSLTISNLEPEDLATYYCQQYSRFPPTFGGGTKLEIK | 0.67 nM | 86.9% |
